Where no end group is shown, it is not given here.

Common to all, as to experiment: cell-based or functional assay
The target of assay [1] is MRGA4-GFP fusion protein (mouse) (UniProt Q91WW2).
The target in assay [2] is T1, MRGA1-GFP fusion protein (mouse, UniProt Q91WW5 1-304).
T1 sequence: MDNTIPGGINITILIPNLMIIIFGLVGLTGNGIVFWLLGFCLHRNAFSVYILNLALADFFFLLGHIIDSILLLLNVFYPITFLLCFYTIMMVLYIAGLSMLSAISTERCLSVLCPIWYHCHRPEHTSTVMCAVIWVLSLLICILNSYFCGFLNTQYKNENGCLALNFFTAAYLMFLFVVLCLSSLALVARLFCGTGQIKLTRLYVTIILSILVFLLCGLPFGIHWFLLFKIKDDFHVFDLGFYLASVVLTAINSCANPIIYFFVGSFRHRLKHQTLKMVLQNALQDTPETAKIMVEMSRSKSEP

The target in assay [3] is MAS1.

Sequence of MRGA4-GFP fusion protein (mouse) (Q91WW2 9-313 A204G limits assumed, form in doubt): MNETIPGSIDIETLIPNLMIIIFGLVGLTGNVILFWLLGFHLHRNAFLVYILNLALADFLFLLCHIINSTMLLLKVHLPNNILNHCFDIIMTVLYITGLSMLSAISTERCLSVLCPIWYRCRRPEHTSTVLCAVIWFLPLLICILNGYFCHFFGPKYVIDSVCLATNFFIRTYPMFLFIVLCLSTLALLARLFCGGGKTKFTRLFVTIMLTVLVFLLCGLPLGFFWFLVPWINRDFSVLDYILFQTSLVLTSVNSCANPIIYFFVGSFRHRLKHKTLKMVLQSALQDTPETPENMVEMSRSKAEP

Regarding ACTH (peptide), the EC50 of calcium dose-response, HEK cells expressing G 15 (data not shown) stood at 200 nM in assay [1] and 60 nM in assay [2].
Take NPFF (peptide): the EC50 of calcium dose-response, HEK-G 15 cells in assay [3] turned out to be 400 nM. Besides, in assay [2], the EC50 of calcium dose-response, HEK cells expressing G 15 amounted to 200 nM.
With NPAF (peptide), the EC50 of calcium dose-response, HEK cells expressing G 15 in assay [1] came to 60 nM.

B1: FLRFamide (peptide)
peptide: FLRF-NH2
Regarding B1, the “EC50 of calcium dose-response, HEK cells expressing G 15” value in assay [2] amounted to 20 nM.

(Values after patent EP1280904B1 (CALIFORNIA INSTITUTE OF TECHNOLOGY, dated 2005).)
